The data set has as its target T1, GST-EIL1-N (OsEIL1 N-terminal region) (Oryza sativa (rice), UniProt Q10M41 1-350).
T1 sequence: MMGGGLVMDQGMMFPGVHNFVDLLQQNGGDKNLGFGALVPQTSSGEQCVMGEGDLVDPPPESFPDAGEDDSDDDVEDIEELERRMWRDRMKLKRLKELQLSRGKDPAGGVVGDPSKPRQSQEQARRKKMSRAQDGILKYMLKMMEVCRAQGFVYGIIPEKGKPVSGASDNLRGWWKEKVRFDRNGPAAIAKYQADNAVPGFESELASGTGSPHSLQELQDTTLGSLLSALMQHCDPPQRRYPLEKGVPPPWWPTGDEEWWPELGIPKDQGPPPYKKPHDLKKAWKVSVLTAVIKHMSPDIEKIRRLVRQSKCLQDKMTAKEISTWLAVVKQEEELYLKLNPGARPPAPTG
The data set is described as follows: EMSA; specificity shown by excess unlabeled probe competition; LightShift Chemiluminescent EMSA kit, manufacturer's protocol; 20 min at room temperature; 5% native polyacrylamide gel; buffer, salt and pH not stated. The note with it: protein: recombinant; tags: N-terminal GST (pGEX-6p-1); label: biotin 3' end; blunt.

The record followed here is article PMC5581195, “The activation of OsEIL1 on YUC8 transcription and auxin biosynthesis is required for ethylene-inhibited root elongation in rice early seedling development”.

B1: YUC8/REIN7 promoter EBS probe (P1 fragment region) (dsDNA)
DNA 1: CCAAAATTTTTAATGTAAAATTTTAAGTACATTTTTTTCATGTACTAGCTACCTCC
DNA 2: GGAGGTAGCTAGTACATGAAAAAAATGTACTTAAAATTTTACATTAAAAATTTTGG
In the case of B1, the binding result is on record as “binds”.
